From the supplement of paper PMC10126150
± gives the standard deviation of the averaged measurements.

Each sequence was assayed on ATP (assay: switch fluorescence ratio, 500 uM ATP over buffer (Cy3 cluster intensity, sum of 5 cycles each) (fold (ratio)); higher = stronger signal-on switching upon ATP binding; sequences stand for … in TCGTCGGCAGCGTCAGATGTGTATAAGAGACAGTTTTTTTTTTTTTTTTTTTTTTTTT…TC). Conditions: aptamer strand: ATP DNA aptamer (quencher-CACCTGGGGGAGTATTGCGGAGGAAGG + anchor), 100 nM annealed; ATP concentration: 500 uM.
Procedure, shortened: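 Switching-strand clusters labelled with Cy3 on a modified Illumina MiSeq flow-cell were annealed to 100 nM quencher-labelled ATP aptamer, imaged in selection buffer, and re-imaged after 15 min with 500 uM ATP at 22 °C. This was done over five cycles with NaOH stripping and re-annealing in between. The fluorescence ratio is summed target-cycle over summed buffer-cycle Cy3 intensity per cluster, averaged per switch-domain sequence, excluding clusters outside 100-1000 RFU.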
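Also: ATP exposure 15 min at 22 °C before imaging.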

| Sequence | switch fluorescence ratio |
| --- | --- |
| GGGTCTAGGA | 1.006 ± 0.0052 |
| GGGTCTCGAG | 0.9866 ± 0.0096 |
| GGGTCTGGTG | 1.04 ± 0.057 |
| GGGTCTGGTT | 0.976 ± 0.033 |
| GGGTGAAAAG | 1.04 ± 0.033 |
| GGGTGAAGAA | 0.967 ± 0.019 |
| GGGTGAAGGC | 0.971 ± 0.058 |
| GGGTGAGCTG | 0.98 ± 0.04 |
| GGGTGAGGCG | 0.981 ± 0.038 |
| GGGTGAGGGT | 0.993 ± 0.015 |
| GGGTGAGGTT | 0.997 ± 0.021 |
| GGGTGAGTAG | 1.02 ± 0.067 |
| GGGTGATGGT | 0.964 ± 0.053 |
| GGGTGATTGA | 0.988 ± 0.021 |
| GGGTGCCGGT | 1.01 ± 0.024 |
| GGGTGCTGCT | 0.954 ± 0.033 |
| GGGTGGAATT | 1.005 ± 0.0092 |
| GGGTGGATGT | 1.01 ± 0.012 |
| GGGTGGCATT | 0.957 ± 0.0032 |
| GGGTGGCGTG | 0.981 ± 0.082 |
| GGGTGGGCCA | 0.969 ± 0.035 |
| GGGTGGGGCA | 1.01 ± 0.045 |
| GGGTGGGTGG | 0.989 ± 0.017 |
| GGGTGTAATC | 1.01 ± 0.024 |
| GGGTGTAGCC | 1.04 ± 0.037 |
| GGGTGTAGTT | 0.999 ± 0.036 |

| Sequence | switch fluorescence ratio |
| --- | --- |
| GGGTGTGAGG | 0.983 ± 0.025 |
| GGGTGTTCGT | 1.004 ± 0.0028 |
| GGGTGTTGTC | 1.006 ± 0.01 |
| GGGTGTTTGT | 1 ± 0.018 |
| GGGTGTTTTG | 0.996 ± 0.013 |
| GGGTTAAAAC | 1.01 ± 0.043 |
| GGGTTAAACT | 0.987 ± 0.023 |
| GGGTTAGGGG | 1.01 ± 0.04 |
| GGGTTATAGG | 0.978 ± 0.025 |
| GGGTTATGCT | 0.99 ± 0.046 |
| GGGTTCAGAG | 1 ± 0.042 |
| GGGTTCCTAG | 1.01 ± 0.041 |
| GGGTTCTCTC | 0.98 ± 0.011 |
| GGGTTCTTTG | 1.03 ± 0.064 |
| GGGTTGACCC | 0.993 ± 0.024 |
| GGGTTGACGC | 1.01 ± 0.013 |
| GGGTTGCTAC | 1.02 ± 0.017 |
| GGGTTGGCTA | 0.964 ± 0.047 |
| GGGTTGGCTG | 0.989 ± 0.048 |
| GGGTTGGGGG | 1 ± 0.032 |
| GGGTTGGGGT | 0.997 ± 0.041 |
| GGGTTGTATG | 0.997 ± 0.038 |
| GGGTTGTCCG | 1.05 ± 0.07 |
| GGGTTGTCGT | 1.01 ± 0.062 |
| GGGTTGTGAT | 0.984 ± 0.014 |
| GGGTTTAAGT | 0.986 ± 0.023 |

| Sequence | switch fluorescence ratio |
| --- | --- |
| GGGTTTAATC | 1.08 ± 0.077 |
| GGGTTTACCT | 1.05 ± 0.051 |
| GGGTTTAGCG | 1.014 ± 0.0022 |
| GGGTTTAGGG | 1 ± 0.045 |
| GGGTTTATGA | 0.98 ± 0.04 |
| GGGTTTCACG | 0.983 ± 0.023 |
| GGGTTTGAGC | 0.981 ± 0.033 |
| GGGTTTGGCT | 1.01 ± 0.029 |
| GGGTTTGTTA | 1 ± 0.018 |
| GGGTTTGTTT | 1.02 ± 0.046 |
| GGGTTTTATC | 0.999 ± 0.035 |
| GGGTTTTCGG | 0.987 ± 0.026 |
| GGGTTTTGGA | 0.998 ± 0.039 |
| GGGTTTTTAG | 0.994 ± 0.033 |
| GGTAAACGGA | 1.02 ± 0.044 |
| GGTAAAGGGG | 0.991 ± 0.058 |
| GGTAAATTTT | 1 ± 0.018 |
| GGTAACATTT | 1.061 ± 0.0053 |
| GGTAACGGGG | 1.06 ± 0.065 |
| GGTAACTTGG | 1.01 ± 0.034 |
| GGTAATATTA | 1.07 ± 0.051 |
| GGTAATTGTG | 0.987 ± 0.016 |
| GGTAATTGTT | 0.998 ± 0.025 |
| GGTACATGGG | 0.975 ± 0.021 |
| GGTACGAAAG | 1.01 ± 0.026 |
| GGTACGATGG | 1.01 ± 0.015 |

| Sequence | switch fluorescence ratio |
| --- | --- |
| GGTACTATAG | 1.034 ± 0.0066 |
| GGTACTCGTA | 1.01 ± 0.039 |
| GGTACTTCGA | 0.9938 ± 0.0015 |
| GGTAGATATG | 1.021 ± 0.0078 |
| GGTAGATCGG | 1.004 ± 0.0061 |
| GGTAGGAACC | 1.01 ± 0.021 |
| GGTAGGCCTG | 0.989 ± 0.056 |
| GGTAGGCGGG | 0.959 ± 0.018 |
| GGTAGGCTGC | 0.986 ± 0.018 |
| GGTAGGGGCG | 1.03 ± 0.031 |
| GGTAGGGGTA | 1.03 ± 0.084 |
| GGTAGGGGTC | 1.01 ± 0.056 |
| GGTAGGGGTG | 1.07 ± 0.033 |
| GGTAGTGGGA | 1 ± 0.046 |
| GGTAGTGGGG | 0.987 ± 0.021 |
| GGTATAAATT | 0.939 ± 0.011 |
| GGTATAAGAT | 1.01 ± 0.013 |
| GGTATACTGA | 1.05 ± 0.049 |
| GGTATAGGGG | 0.995 ± 0.054 |
| GGTATAGGTC | 1.05 ± 0.011 |
| GGTATATATG | 0.995 ± 0.055 |
| GGTATATCTG | 1.01 ± 0.039 |
| GGTATATGTG | 1 ± 0.025 |
| GGTATCACCT | 1.04 ± 0.034 |
| GGTATCTCGA | 1.03 ± 0.044 |
| GGTATCTGAT | 1.03 ± 0.02 |

| Sequence | switch fluorescence ratio |
| --- | --- |
| GGTATGGAGG | 0.988 ± 0.038 |
| GGTATGGCGA | 0.939 ± 0.048 |
| GGTATGTAGG | 0.978 ± 0.012 |
| GGTATTATAT | 0.98 ± 0.038 |
| GGTATTATGG | 1 ± 0.029 |
| GGTATTCGGC | 1.01 ± 0.017 |
| GGTATTCTGT | 0.951 ± 0.03 |
| GGTATTGGAG | 0.984 ± 0.015 |
| GGTATTGGTA | 1.13 ± 0.25 |
| GGTATTGTTG | 1 ± 0.024 |
| GGTATTTTAA | 1.04 ± 0.027 |
| GGTCAAACCC | 1.032 ± 0.0044 |
| GGTCAAGCTC | 1.02 ± 0.02 |
| GGTCAAGGCC | 0.999 ± 0.041 |
| GGTCAAGTGG | 1 ± 0.02 |
| GGTCAAGTTG | 0.961 ± 0.019 |
| GGTCAGGGGA | 0.988 ± 0.04 |
| GGTCATAGGG | 0.958 ± 0.022 |
| GGTCATGCGG | 1.01 ± 0.021 |
| GGTCCAAAAG | 1.008 ± 0.0075 |
| GGTCCAGGAT | 1.018 ± 0.0068 |
| GGTCCATACG | 1.01 ± 0.025 |
| GGTCCCAAAA | 0.981 ± 0.032 |
| GGTCCCCAAT | 1 ± 0.013 |
| GGTCCGGCAC | 1.079 ± 0.009 |
| GGTCCGGGCT | 1 ± 0.02 |

| Sequence | switch fluorescence ratio |
| --- | --- |
| GGTCCTAATA | 1 ± 0.026 |
| GGTCCTCTTT | 0.98275 ± 0.00076 |
| GGTCCTGCGG | 1.01 ± 0.087 |
| GGTCCTGGCT | 1.015 ± 0.01 |
| GGTCGAAAGG | 0.985 ± 0.063 |
| GGTCGAGCTA | 0.996 ± 0.042 |
| GGTCGCGGGG | 1.03 ± 0.027 |
| GGTCGCTTGG | 1.04 ± 0.061 |
| GGTCGGGCTG | 0.9942 ± 0.0047 |
| GGTCGGGGCA | 1.02 ± 0.025 |
| GGTCGGGGGG | 1.03 ± 0.037 |
| GGTCGGGGTG | 1.09 ± 0.069 |
| GGTCGTCTTG | 0.996 ± 0.04 |
| GGTCGTGTAA | 0.991 ± 0.061 |
| GGTCGTTTTG | 0.991 ± 0.025 |
| GGTCTAAGTA | 1.08 ± 0.084 |
| GGTCTAGTCC | 1.018 ± 0.0034 |
| GGTCTATCGG | 0.965 ± 0.018 |
| GGTCTATCGT | 1 ± 0.039 |
| GGTCTCAGGT | 1.03 ± 0.023 |
| GGTCTCCTTT | 0.971 ± 0.018 |
| GGTCTGAAGT | 1.008 ± 0.004 |
| GGTCTGGGAG | 1 ± 0.023 |
